According to US20070020327A1:
Read-outs that look alike come from different tables or passages of the source. Values belong to the binder of their own block, whether it stands above or below them.

Legend:
HLA-A*1101 (human) [1] = test: inhibition of 125I-labeled probe peptide binding to purified HLA-A*1101, gel filtration; relative to standard peptide 940.06
HLA-B*0702 (human) = test: competition with 125I-labeled standard peptide (1075.23 [..]) for purified HLA-B*0702, gel filtration
HLA-A*0206 (human) [2] = test: inhibition of 125I probe peptide binding to purified HLA, gel filtration; ratio = IC50 standard/IC50 test
HLA-A*0201 (human) [3] = test: as above
HLA-A*0202 (human) [4] = test: as above
HLA-A*6802 (human) [5] = test: as above
HLA-A*1101 (human) [6] = test: competition with a 125I-labelled probe peptide for purified HLA-A*1101, gel filtration; value relative to the standard peptide
HLA-A*6801 (human) = test: competition with 125I-labelled standard peptide for purified HLA, gel filtration; conditions: scale: ratio
HLA-A*1101 (human) [7] = test: as above; conditions: scale: ratio
HLA-A*3301 (human) = test: as above; conditions: scale: ratio
HLA-A*0301 (human) [8] = test: as above; conditions: scale: ratio
HLA-A*0201 (human) [9] = test: inhibition of 125I-standard peptide binding to purified HLA, gel filtration
HLA-A*6802 (human) [10] = test: as above
HLA-A*0203 (human) [11] = test: as above
HLA-A*0206 (human) [12] = test: competition with 125I-labelled standard peptide for purified HLA, gel filtration; ratio = IC50 standard / IC50 test peptide; conditions: remark: other sources report otherwise
HLA-A*0201 (human) [13] = test: as above; conditions: remark: other sources report otherwise
HLA-A*0202 (human) [14] = test: as above; conditions: remark: other sources report otherwise
HLA-A*0203 (human) [15] = test: as above; conditions: remark: other sources report otherwise
HLA-A*0301 (human) [16] = test: competition with 125I-labelled standard peptide for purified HLA-A*0301, gel filtration; relative binding
[17] = target: HLA-A*0202 (purified HLA class I molecule) (human); test: competition with 125I-labelled standard peptide for purified HLA, gel filtration
HLA-A*0206 (human) [18] = test: competition for purified HLA with 125I-labelled standard peptide 941.01 [..] as competitor, gel filtration; conditions: remark: other sources report otherwise; scale: ratio
HLA-A*0201 (human) [19] = test: as above; conditions: remark: other sources report otherwise; scale: ratio
HLA-A*0202 (human) [20] = test: as above; conditions: remark: other sources report otherwise; scale: ratio
HLA-A*0203 (human) [21] = test: as above; conditions: remark: other sources report otherwise; scale: ratio
HLA-A*0206 (human) [22] = test: inhibition of 125I-standard peptide binding to purified HLA, gel filtration
HLA-A*0203 (human) [23] = test: competition with 125I-labelled standard peptide 941.01 for purified HLA-A*0203, gel filtration
HLA-A*0206 (human) [24] = test: competition with 125I-labelled standard peptide 941.01 for purified HLA-A*0206, gel filtration
HLA-A*6802 (human) [25] = test: competition with 125I-labelled standard peptide 1072.34 for purified HLA-A*6802, gel filtration
HLA-A*0202 (human) [26] = test: competition with 125I-labelled standard peptide 941.01 for purified HLA-A*0202, gel filtration
HLA-A*0201 (human) [27] = test: competition with 125I-labelled standard peptide 941.01 for purified HLA-A*0201, gel filtration
[28] = target: HLA-A*0206 (purified HLA class I molecule) (human); test: competition with 125I-labelled standard peptide for purified HLA, gel filtration
HLA-A*1101 (human) [29] = test: competition with 125I-labeled standard peptide for purified HLA-A*1101, gel filtration; relative binding
HLA-A*0201 (human) [30] = test: competition binding to purified HLA, 125I-labelled standard peptide, gel filtration; ratio = IC50 standard / IC50 test peptide
HLA-A*0203 (human) [31] = test: as above
HLA-A*0201 (human) [32] = test: competition with 125I-labelled standard peptide 941.01 ([..]) for purified HLA-A*0201, gel filtration
HLA-A*0202 (human) [33] = test: competition with 125I-labelled standard peptide 941.01 ([..]) for purified HLA-A*0202, gel filtration
HLA-A*0206 (human) [34] = test: competition with 125I-labelled standard peptide 941.01 ([..]) for purified HLA-A*0206, gel filtration
[35] = target: HLA-A*0201 (purified HLA class I molecule) (human); test: competition with 125I-labelled standard peptide for purified HLA, gel filtration
[36] = remark: other sources report otherwise

Binder: CSPSCPLER (modifications not checked) [PAP peptide … (position 347, 9 amino acids)]
binding affinity ratio (IC50 of standard peptide / IC50 of test peptide) (HLA-A*1101 (human) [1]): 0.0006

Binder: YPNKTHPNY (modifications not checked) [PSM peptide … (position 119, 9 amino acids)]
binding affinity ratio (IC50 of standard peptide / IC50 of test peptide) (HLA-B*0702 (human)): 0.0001

Binder: ALPEKPAVYT (modifications not checked) [… (Kallikrein, position 235)]
binding affinity ratio (HLA-A*0206 (human) [2]): 0.0005 | binding affinity ratio (HLA-A*0201 (human) [3]): 0.0003 | binding affinity ratio (HLA-A*0202 (human) [4]): 0.005 | binding affinity ratio (HLA-A*6802 (human) [5]): -0.0001

Binder: ESYKHEQVY (modifications not checked) [PAP peptide … (position 95, 9 amino acids)]
binding affinity ratio (IC50 of standard peptide / IC50 of test peptide) (HLA-A*1101 (human) [6]; [36]): 0.0002

Binder: PAELTDAVK (modifications not checked) [… (PSA, position 125)]
binding affinity ratio (HLA-A*6801 (human)): 0.0001 | binding affinity ratio (HLA-A*1101 (human) [7]): 0.0002 | binding affinity ratio (HLA-A*3301 (human)): 0.0006 | binding affinity ratio (HLA-A*0301 (human) [8]): 0.0002

Binder: LLSNDMCA (modifications not checked) [Kallikrein 178 LLSNDMCA]
binding affinity ratio (IC50 standard peptide / IC50 test peptide) (ratio to standard peptide) (HLA-A*0201 (human) [9]): 0.0003 | binding affinity ratio (IC50 standard peptide / IC50 test peptide) (ratio to standard peptide) (HLA-A*6802 (human) [10]): -0.0001 | binding affinity ratio (IC50 standard peptide / IC50 test peptide) (ratio to standard peptide) (HLA-A*0203 (human) [11]): 0.0003

Binder: ALPEKPAV (modifications not checked) [ALPEKPAV (Kallikrein, position 235)]
binding affinity ratio (HLA-A*0206 (human) [2]; [36]): 0.0001 | binding affinity ratio (HLA-A*0201 (human) [3]; [36]): 0.0009 | binding affinity ratio (HLA-A*0202 (human) [4]; [36]): 0.02 | binding affinity ratio (HLA-A*6802 (human) [5]; [36]): -0.0001

Binder: ETYELVEKFY (modifications not checked) [PSM peptide … (position 557, 10 amino acids)]
binding affinity ratio (IC50 of standard peptide / IC50 of test peptide) (HLA-A*1101 (human) [6]): 0.0002

Binder: IALSVGCTGAV (modifications not checked) [… (Kallikrein position 8, 11-mer)]
binding affinity ratio (HLA-A*0206 (human) [18]): 0.01 | binding affinity ratio (HLA-A*0201 (human) [19]): 0.0009 | binding affinity ratio (HLA-A*0202 (human) [20]): 0.0032 | binding affinity ratio (HLA-A*0203 (human) [21]): 0.027

Binder: RLSEPAKIT (modifications not checked) [… (Kallikrein, position 125)]
binding affinity ratio (IC50 of standard peptide / IC50 of test peptide) (HLA-A*0203 (human) [23]): 0.0009 | binding affinity ratio (IC50 of standard peptide / IC50 of test peptide) (HLA-A*0206 (human) [24]): -0.0001 | binding affinity ratio (IC50 of standard peptide / IC50 of test peptide) (HLA-A*6802 (human) [25]): -0.0002 | binding affinity ratio (IC50 of standard peptide / IC50 of test peptide) (HLA-A*0202 (human) [26]): -0.0002 | binding affinity ratio (IC50 of standard peptide / IC50 of test peptide) (HLA-A*0201 (human) [27]): -0.0001

Binder: RAYSEKVT (modifications not checked) [RAYSEKVT (Kallikrein, position 186)]
binding affinity ratio (IC50 of standard peptide / IC50 of test peptide) (HLA-A*0203 (human) [23]): 0.0003 | binding affinity ratio (IC50 of standard peptide / IC50 of test peptide) (HLA-A*0206 (human) [24]): 0.0001 | binding affinity ratio (IC50 of standard peptide / IC50 of test peptide) (HLA-A*6802 (human) [25]): -0.0001 | binding affinity ratio (IC50 of standard peptide / IC50 of test peptide) (HLA-A*0202 (human) [26]): -0.0001 | binding affinity ratio (IC50 of standard peptide / IC50 of test peptide) (HLA-A*0201 (human) [27]): -0.0001

Binder: MLCAGLWT (modifications not checked) [Kallikrein (hK2) peptide MLCAGLWT (position 196, 8 amino acids)]
binding affinity ratio (IC50 of standard peptide / IC50 of test peptide) [28]: 0.0001 | binding affinity ratio (IC50 of standard peptide / IC50 of test peptide) [17]: 0.002

Binder: LAGAKGVILY (modifications not checked) [PSM 219 …]
binding affinity ratio (IC50 of standard peptide / IC50 of test peptide) (HLA-A*1101 (human) [29]): 0.0002

Binder: DTCGGDSGGPL (modifications not checked) [… (Kallikrein, position 207, 11 amino acids)]
binding affinity ratio (HLA-A*0201 (human) [30]): 0.0001 | binding affinity ratio (HLA-A*0203 (human) [31]): 0.0005

Binder: KGEYFVEMY (modifications not checked) [PAP 322 …]
binding affinity ratio (IC50 of standard peptide / IC50 of test peptide) (HLA-A*1101 (human) [29]; [36]): 0.0002

The next lines start with the values.

binding affinity ratio (ratio to standard peptide) (HLA-A*0206 (human) [12]): 0.0037 | binding affinity ratio (ratio to standard peptide) (HLA-A*0201 (human) [13]): 0.0084 | binding affinity ratio (ratio to standard peptide) (HLA-A*0202 (human) [14]): 0.022 | binding affinity ratio (ratio to standard peptide) (HLA-A*0203 (human) [15]): 0.052
Binder: PTQEPALGTT (modifications not checked) [Kallikrein (hK2) peptide …, position 142, 10 amino acids]

binding affinity ratio (IC50 of standard peptide / IC50 of test peptide) (HLA-A*1101 (human) [1]): 0.0002
Binder: DALFDIESK (modifications not checked) [PSM peptide … (position 710, 9 amino acids)]

binding affinity ratio (ratio to standard peptide) (HLA-A*0206 (human) [12]): 0.0037 | binding affinity ratio (ratio to standard peptide) (HLA-A*0201 (human) [13]): 0.0084 | binding affinity ratio (ratio to standard peptide) (HLA-A*0202 (human) [14]): 0.022 | binding affinity ratio (ratio to standard peptide) (HLA-A*0203 (human) [15]): 0.052
Binder: PTQEPALGTT (modifications not checked) [PSA peptide …, position 138, 10 amino acids]

binding affinity ratio (IC50 of the standard peptide / IC50 of the test peptide) (HLA-A*0301 (human) [16]): 0.0005
Binder: GFFLLGFLF (modifications not checked) [PSM peptide … (PSM position 31, 9 amino acids)]

binding affinity ratio (IC50 of standard peptide / IC50 of test peptide) [17, 36]: 0.003
Binder: LVLAGGFFL (modifications not checked) [PSM peptide … (position 26, 9 amino acids)]

binding affinity ratio (IC50 standard peptide / IC50 test peptide) (ratio to standard peptide) (HLA-A*0206 (human) [22]): -0.0001 | binding affinity ratio (IC50 standard peptide / IC50 test peptide) (ratio to standard peptide) (HLA-A*0201 (human) [9]): 0.0002 | binding affinity ratio (IC50 standard peptide / IC50 test peptide) (ratio to standard peptide) (HLA-A*6802 (human) [10]): -0.0001
Binder: LLRLSEPAKIT (modifications not checked) [Kallikrein 123 …]

binding affinity ratio (HLA-A*0206 (human) [2]; [36]): 0.0001 | binding affinity ratio (HLA-A*0201 (human) [3]; [36]): 0.0003 | binding affinity ratio (HLA-A*0202 (human) [4]; [36]): 0.0006
Binder: AAHCLKKNSQV (modifications not checked) [… (Kallikrein, position 63)]

binding affinity ratio (IC50 of standard peptide / IC50 of test peptide) (HLA-A*0201 (human) [32]): -0.0001 | binding affinity ratio (IC50 of standard peptide / IC50 of test peptide) (HLA-A*0202 (human) [33]): 0.0009 | binding affinity ratio (IC50 of standard peptide / IC50 of test peptide) (HLA-A*0206 (human) [34]): 0.0005
Binder: TTCYASGWGSI (modifications not checked) [Kallikrein (hK2) peptide … (position 150, 11 amino acids); the same letters in PSA at position 146]

binding affinity ratio (IC50 of standard peptide / IC50 of test peptide) (HLA-A*0203 (human) [23]): 0.0003 | binding affinity ratio (IC50 of standard peptide / IC50 of test peptide) (HLA-A*0206 (human) [24]): -0.0001 | binding affinity ratio (IC50 of standard peptide / IC50 of test peptide) (HLA-A*6802 (human) [25]): -0.0001 | binding affinity ratio (IC50 of standard peptide / IC50 of test peptide) (HLA-A*0202 (human) [26]): -0.0001 | binding affinity ratio (IC50 of standard peptide / IC50 of test peptide) (HLA-A*0201 (human) [27]): -0.0001
Binder: RAVCGGVL (modifications not checked) [RAVCGGVL (PSA, position 43)]

binding affinity ratio (IC50 of standard peptide / IC50 of test peptide) [35]: 0.0002 | binding affinity ratio (IC50 of standard peptide / IC50 of test peptide) [28]: -0.0001
Binder: NLFEPEDT (modifications not checked) [Kallikrein (hK2) peptide NLFEPEDT (position 79, 8 amino acids)]
